T1: full-length HOOK3 (of FHF co-expression) (human, UniProt Q86VS8 1-718)
T1 construct: HOOK3, human, full length; gene codon optimized for Sf9; Captured on Strep-Tactin by the tag, then released with PreScission protease before gel filtration; source: Sf9, co-expressed with FTS and FHIP1B or FHIP2A, purified (Strep-Tactin, PreScission, SEC); not shown: Strep II, N-terminal, cleaved
T1 sequence (looked up): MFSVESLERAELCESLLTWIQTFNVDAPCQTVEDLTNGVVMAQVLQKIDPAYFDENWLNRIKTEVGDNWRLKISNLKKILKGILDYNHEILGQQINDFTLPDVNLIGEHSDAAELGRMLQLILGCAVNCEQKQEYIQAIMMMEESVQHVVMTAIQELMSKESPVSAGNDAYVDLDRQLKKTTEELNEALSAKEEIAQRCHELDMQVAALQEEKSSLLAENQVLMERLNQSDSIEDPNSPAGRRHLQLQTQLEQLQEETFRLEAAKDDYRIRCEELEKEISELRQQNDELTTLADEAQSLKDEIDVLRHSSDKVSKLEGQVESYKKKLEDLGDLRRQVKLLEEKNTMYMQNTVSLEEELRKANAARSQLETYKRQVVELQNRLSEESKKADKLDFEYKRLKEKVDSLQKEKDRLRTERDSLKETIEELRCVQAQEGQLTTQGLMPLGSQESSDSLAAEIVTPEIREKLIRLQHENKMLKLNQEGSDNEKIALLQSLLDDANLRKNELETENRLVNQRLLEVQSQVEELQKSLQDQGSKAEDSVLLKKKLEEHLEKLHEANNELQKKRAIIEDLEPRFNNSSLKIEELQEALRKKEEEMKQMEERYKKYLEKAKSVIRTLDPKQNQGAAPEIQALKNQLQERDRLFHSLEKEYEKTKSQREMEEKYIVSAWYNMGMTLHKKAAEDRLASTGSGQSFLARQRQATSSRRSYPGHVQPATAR

T2: C-terminal HOOK3 (residues 451–718) (human, UniProt Q86VS8 451-718)
T2 construct: also called H^C; source: Sf9, co-expressed with FTS and FHIP1B, purified (Strep-Tactin, PreScission, SEC); not shown: Strep II, N-terminal, cleaved
T2 sequence (looked up): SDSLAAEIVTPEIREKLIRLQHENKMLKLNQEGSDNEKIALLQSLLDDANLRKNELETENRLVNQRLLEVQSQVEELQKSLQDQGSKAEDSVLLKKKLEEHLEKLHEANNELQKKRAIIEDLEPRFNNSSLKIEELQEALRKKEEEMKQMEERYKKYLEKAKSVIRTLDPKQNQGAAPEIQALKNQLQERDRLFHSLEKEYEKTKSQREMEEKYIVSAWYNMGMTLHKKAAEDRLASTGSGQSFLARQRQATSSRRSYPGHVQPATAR

T3: KIF1C–GFP (full-length KIF1C fused to a C-terminal eGFP) (human, UniProt O43896 1-1103)
T3 construct: kinesin-3 KIF1C, human, full length (residues up to 1103 are named); also called KFL; KFL–GFP; not shown: eGFP, C-terminal, kept
T3 sequence (looked up): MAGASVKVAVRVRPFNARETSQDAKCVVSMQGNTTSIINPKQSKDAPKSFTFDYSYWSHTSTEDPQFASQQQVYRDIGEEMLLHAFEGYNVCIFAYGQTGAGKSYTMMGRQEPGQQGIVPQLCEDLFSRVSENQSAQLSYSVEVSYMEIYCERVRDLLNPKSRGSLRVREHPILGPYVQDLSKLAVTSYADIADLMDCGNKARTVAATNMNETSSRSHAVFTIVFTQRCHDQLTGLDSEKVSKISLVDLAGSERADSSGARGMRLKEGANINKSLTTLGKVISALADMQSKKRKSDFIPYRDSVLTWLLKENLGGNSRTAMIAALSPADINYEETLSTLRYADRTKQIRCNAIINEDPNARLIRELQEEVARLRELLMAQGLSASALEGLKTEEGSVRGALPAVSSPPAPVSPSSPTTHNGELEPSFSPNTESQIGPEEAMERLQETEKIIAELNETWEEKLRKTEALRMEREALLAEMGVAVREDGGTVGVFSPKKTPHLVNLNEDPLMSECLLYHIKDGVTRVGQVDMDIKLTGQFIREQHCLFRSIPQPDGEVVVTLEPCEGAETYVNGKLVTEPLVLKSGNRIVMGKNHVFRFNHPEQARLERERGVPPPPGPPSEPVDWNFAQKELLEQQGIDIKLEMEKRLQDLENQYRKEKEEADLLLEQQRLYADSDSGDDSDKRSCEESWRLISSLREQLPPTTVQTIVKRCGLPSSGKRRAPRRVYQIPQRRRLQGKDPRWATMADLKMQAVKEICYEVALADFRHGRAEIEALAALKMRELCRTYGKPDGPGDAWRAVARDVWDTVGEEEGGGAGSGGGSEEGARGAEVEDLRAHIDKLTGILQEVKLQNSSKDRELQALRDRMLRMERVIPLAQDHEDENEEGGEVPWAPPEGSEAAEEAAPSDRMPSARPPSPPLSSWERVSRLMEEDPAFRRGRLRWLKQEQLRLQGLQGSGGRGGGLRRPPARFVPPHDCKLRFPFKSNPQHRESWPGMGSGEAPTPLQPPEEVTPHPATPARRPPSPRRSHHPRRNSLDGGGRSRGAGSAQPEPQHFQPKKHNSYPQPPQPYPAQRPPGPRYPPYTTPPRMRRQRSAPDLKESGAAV

B1: GST-KIF1C stalk 674-922 (domain or fragment, human, UniProt O43896 674-922, looked up)
chain: SDSGDDSDKRSCEESWRLISSLREQLPPTTVQTIVKRCGLPSSGKRRAPRRVYQIPQRRRLQGKDPRWATMADLKMQAVKEICYEVALADFRHGRAEIEALAALKMRELCRTYGKPDGPGDAWRAVARDVWDTVGEEEGGGAGSGGGSEEGARGAEVEDLRAHIDKLTGILQEVKLQNSSKDRELQALRDRMLRMERVIPLAQDHEDENEEGGEVPWAPPEGSEAAEEAAPSDRMPSARPPSPPLSSWE
notes: KIF1C, human, residues 674-922; Based on the original GST–KIF1C stalk plasmid; also called KIF1CS^2; KIF1CS^674–922; source: E. coli SoluBL21, purified (Ni-NTA, SEC); not shown: GST, N-terminal, kept
B2: HOOK3-SNAPf labeled with Alexa-647 (natural protein, human, UniProt Q86VS8 1-718, looked up)
chain: T1 sequence (looked up)
modifications: Alexa-647 on the SNAP tag
notes: HOOK3, human, amplified from a human cDNA library from the start codon to the last codon; also called HOOK3-Alexa 647; source: Sf9, purified (Ni-NTA, IgG Sepharose, cut off the beads with TEV protease); not shown: 8xHis, N-terminal, cleaved; ZZ, N-terminal, cleaved; SNAPf, C-terminal, kept
B3: C-terminal HOOK3 fragment (residues 571–718) (domain or fragment, human, UniProt Q86VS8 571-718, looked up)
chain: DLEPRFNNSSLKIEELQEALRKKEEEMKQMEERYKKYLEKAKSVIRTLDPKQNQGAAPEIQALKNQLQERDRLFHSLEKEYEKTKSQREMEEKYIVSAWYNMGMTLHKKAAEDRLASTGSGQSFLARQRQATSSRRSYPGHVQPATAR
notes: gene codon optimized for Sf9; Captured on Strep-Tactin by the tag, then released with PreScission protease before gel filtration; Two copies form the coiled coil in the structure; source: Sf9, co-expressed with FTS and FHIP1B or FHIP2A, purified (Strep-Tactin, PreScission, SEC); not shown: Strep II, N-terminal, cleaved
B4: GST–KIF1C stalk (residues 642–922) (domain or fragment, human, UniProt O43896 642-922, looked up)
chain: EMEKRLQDLENQYRKEKEEADLLLEQQRLYADSDSGDDSDKRSCEESWRLISSLREQLPPTTVQTIVKRCGLPSSGKRRAPRRVYQIPQRRRLQGKDPRWATMADLKMQAVKEICYEVALADFRHGRAEIEALAALKMRELCRTYGKPDGPGDAWRAVARDVWDTVGEEEGGGAGSGGGSEEGARGAEVEDLRAHIDKLTGILQEVKLQNSSKDRELQALRDRMLRMERVIPLAQDHEDENEEGGEVPWAPPEGSEAAEEAAPSDRMPSARPPSPPLSSWE
notes: KIF1C, human, amino acids 642-922 (CC2, stalk globular domain, CC3); A tandem TEV site lies between GST and KIF1C; also called KS; GST-tagged KIF1C stalk; source: E. coli SoluBL21, purified (Ni-NTA, SEC); not shown: GST, N-terminal, kept

Key:
[1] = target: T1, full-length HOOK3 (of FHF co-expression); assay: cross-linking; cross-linking mass spectrometry; 10 mM EDC or 5 mM DSSO, room temperature, 60 min; full-length FHF or FH^571-718F with KIF1C stalk 674-922; conditions: both partners purified
[2] = target: T2, C-terminal HOOK3 (residues 451–718); assay: cryo-EM structure; FH^451–718F with GST-KIF1C stalk 674–922; 4.8 Å, low resolution at the KIF1C stalk density; no atomic model; conditions: both partners purified
[3] = target: T3, KIF1C–GFP (full-length KIF1C fused to a …); assay: single-molecule TIRF microscopy, co-movement on microtubules; 200 nM TMR–dynein, 200 nM dynactin, 1,600 nM labeled adapter and 180 nM KIF1C-GFP mixed at ~75 mM KCl, on ice 45–60 min, diluted 1:20 or 1:40; biotin-microtubules held on the coverslip; 25 °C; conditions: both partners purified
GST-KIF1C stalk 674-922 = target: B1; assay: cross-linking; cross-linking mass spectrometry; 10 mM EDC or 5 mM DSSO, room temperature, 60 min; full-length FHF or FH^571-718F with KIF1C stalk 674-922; conditions: both partners purified
[4] = target: the molecule itself; assay: cryo-EM structure; FTS, FHIP1B and HOOK3 571–718, co-expressed in Sf9 and purified as one complex; 3.2 Å; 0.9 mg/ml with 0.1% CHAPSO or 0.005% Igepal
[5] = target: T4, full-length FTS–HOOK3–FHIP1B complex (human, UniProt Q86VS8 1-718; Q9H8T0 1-292; Q8N612 1-972); assay: mass photometry; full-length FHF with KIF1C stalk, 100 nM in GF150, Refeyn TwoMP; conditions: both partners purified
T4 construct: HOOK3, human, full length; FTS, human, full length; FHIP1B, human, full length; SEC-MALS gave ~304 kDa for the full-length complex; also called FHF; full-length FHF; source: Sf9, co-expressed, purified (Strep-Tactin, PreScission, SEC); not shown: Strep II, N-terminal, cleaved; copies: 2 + +
T4 sequence (Q9H8T0 whole entry, chain 2 of 2): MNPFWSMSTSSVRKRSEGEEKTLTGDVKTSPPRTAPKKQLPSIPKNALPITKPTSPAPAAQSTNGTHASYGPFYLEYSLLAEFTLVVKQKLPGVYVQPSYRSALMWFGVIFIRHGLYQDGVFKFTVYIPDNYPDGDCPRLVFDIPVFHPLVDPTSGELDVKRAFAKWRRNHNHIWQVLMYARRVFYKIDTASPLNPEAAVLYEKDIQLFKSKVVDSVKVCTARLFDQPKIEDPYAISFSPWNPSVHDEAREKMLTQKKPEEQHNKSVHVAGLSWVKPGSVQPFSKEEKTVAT
T4 sequence (Q8N612 whole entry, chain 3 of 2): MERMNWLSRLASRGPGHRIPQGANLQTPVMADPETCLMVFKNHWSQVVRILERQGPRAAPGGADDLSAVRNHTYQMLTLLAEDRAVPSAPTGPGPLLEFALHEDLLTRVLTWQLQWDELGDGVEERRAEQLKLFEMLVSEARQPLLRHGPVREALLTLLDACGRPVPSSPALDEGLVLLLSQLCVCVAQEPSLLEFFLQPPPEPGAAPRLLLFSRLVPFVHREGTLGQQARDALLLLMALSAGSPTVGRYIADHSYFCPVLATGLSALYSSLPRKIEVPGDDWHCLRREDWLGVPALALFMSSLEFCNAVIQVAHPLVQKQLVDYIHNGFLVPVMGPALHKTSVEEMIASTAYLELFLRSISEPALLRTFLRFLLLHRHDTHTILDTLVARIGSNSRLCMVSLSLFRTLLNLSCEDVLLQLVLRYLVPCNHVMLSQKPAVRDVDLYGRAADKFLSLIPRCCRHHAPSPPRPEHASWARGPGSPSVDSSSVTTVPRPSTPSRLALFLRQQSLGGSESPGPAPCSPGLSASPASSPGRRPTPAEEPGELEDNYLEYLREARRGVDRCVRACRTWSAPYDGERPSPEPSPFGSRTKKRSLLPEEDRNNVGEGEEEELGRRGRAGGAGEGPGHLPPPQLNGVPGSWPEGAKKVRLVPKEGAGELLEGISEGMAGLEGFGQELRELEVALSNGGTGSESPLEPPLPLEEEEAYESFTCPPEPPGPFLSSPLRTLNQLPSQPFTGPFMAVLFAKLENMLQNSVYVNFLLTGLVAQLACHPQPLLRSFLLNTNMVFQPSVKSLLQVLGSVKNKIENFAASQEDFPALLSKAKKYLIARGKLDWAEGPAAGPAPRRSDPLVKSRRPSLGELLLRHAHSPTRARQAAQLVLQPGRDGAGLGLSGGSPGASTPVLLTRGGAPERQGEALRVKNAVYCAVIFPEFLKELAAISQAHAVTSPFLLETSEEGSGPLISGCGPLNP

Binder: B1
binding result [1]: binds | binding result [2]: binds

Binder: B2
binding result [3]: binds

Binder: B3
binding result (GST-KIF1C stalk 674-922): binds | binding result [4]: binds

Binder: B4
stoichiometry N [5]: 1 dimeric KIF1C stalk per FHF
